From patent US20210292393A1
Where a chain is given by its changes, count along the chain named. Several values for one entry are separate records, joined by “and”; a condition that tells them apart may be missing. Equal entries are not always repeated.

Tests used:
Details in all cases: remark: other sources report otherwise
[1] = molecular target: SARS-CoV-2 full length spike protein, V483A mutant (SARS-CoV-2), P0DTC2
[2] = molecular target: SARS-CoV-2 full length spike protein, V367F mutant (SARS-CoV-2), P0DTC2
[3] = molecular target: SARS-CoV-2 full length spike protein, V483A mutant, expressed on the surface of CHO cells (SARS-CoV-2), P0DTC2
[4] = molecular target: SARS-CoV-2 full length spike protein, D614G mutant (SARS-CoV-2), P0DTC2
[5] = molecular target: SARS-CoV-2 full length spike protein, V483A mutant, expressed on CHO cells (SARS-CoV-2), P0DTC2
[6] = molecular target: SARS-CoV-2 full length spike protein, V367F mutant, expressed on CHO cells (SARS-CoV-2), P0DTC2
[7] = molecular target: SARS-CoV-2 full length spike protein, D614G mutant, expressed on CHO cells (SARS-CoV-2), P0DTC2

B1: antibody 269 (antibody, V domains shown)
VH: QLQLQESGPGLVKPSETLSLTCTVSGGSISSSSYYWGWIRQPPGKGLEWIGNIYYSGSTYYNPSLKSRVTISVDTSKNQFSLKLSSVTAADTAVYYCAGEELDIVATIYSSRYYYYGMDVWGQGTTVTVSS
VL: QSALTQPASVSGSPGQSITISCTGTSSDVGGYNYVSWYQQHPGKAPKLMIYEVSNRPSGVSNRFSGSKSGNTASLTISGLQAEDEADYYCSSYTSTSTLVFGGGTKLTVL
Q: Which results are given for B1?
A: median fluorescence intensity, fold over isotype control (fold over isotype) [1]: 22.8 and 11.6; median fluorescence intensity, fold over isotype control (fold over isotype) [2]: 25.4

B2: antibody 279 (antibody, V domains shown)
VH: EVQLLESGGGLVQPGGSLRLSCAASGFTFSSYAMSWVRQAPGKGLEWVSTISGSGGNTYYADSVKGRFTISRDNSKNTLYLQMNSLRAEDTAVYYCAKDLFQGLYYGSGEFDYWGQGTLVTVSS
VL: B1 VL with G31A, E52G, T96S, L99R, G103T, L107V
Q: Which median fluorescence intensity, fold over isotype control (fold over isotype) [1] does the source give for B2 here?
A: 11.8 and 8.2

Q: And the median fluorescence intensity, fold over isotype control (fold over isotype) [2]?
A: 13.4

B3: antibody 322 (antibody, V domains shown)
VH: EVQLVESGGGLVQPGGSLRLSCAASGFTFSSYWMSWVRQAPGKGLEWVANIKQDGSEKYYVDSVKGRFTISRDNAKNSLYLQMNSLRAEDTAVYYCARDEDVAAALDYWGQGTLVTVSS
VL: SYVLTQPPSVSVAPGKTARITCGGNNIGSKSVHWYQQKPGQAPVLVIYYDSDRPSGIPERFSGSNSGNTATLTISRVEAGDEADYYCQVWDSSSDHPERVFGGGTKLTVL
Q: How did the median fluorescence intensity, fold over isotype control (fold over isotype) [3] turn out when B3 was run?
A: 4.95

B4: antibody 315 (antibody, V domains shown)
VH: QVQLVQSGSELKKPGASVKLSCQASGYSFTNHAMNWVRQAPGQGLEWMGWINTNTGNPTYAQGFTGRFVFSLDTSVSTTYLHISSLKAEDTAVYYCARASARPGVATNLDFWGQGTLVVVSS
VL: DIQMTQSPSSLSASVGDRVTITCRASQNIDNYLNWYQQKPGKAPKLLIYAASRLHSGVPSRFSGSGSGTDFTLIISSLQPEDLATYYCQQSYSNPLTFGPGTKVDIR
Q: Which median fluorescence intensity, fold over isotype control (fold over isotype) [3] does the source give for B4 here?
A: 8.39

B5: antibody 521 (antibody, V domains shown)
VH: QVQLVESGGGVVQPGRSLRLSCAASGFTFSSYGMHWVRQAPGKGLEWVAVIWYDGSNKYYADSVKGRFTISRDNSKNTLYLQMNSLRAEDTAVYYCAREGNDYGDYGEWELLGYFDYWGQGTLVTVSS
VL: SYELTQPPSVSVSPGQTARITCSGDALPKKYAYWYQQKSGQAPVLVIYEDSKRPSGIPERFSGSSSGTMATLTISGAQVEDEADYYCYSTDSSGNHRRVFGGGTKLTVL
Q: Which median fold over isotype (fold over isotype) [1] does the source give for B5 here?
A: 2.72 and 5.78

Q: What about the median fold over isotype (fold over isotype) [2] of the same binder?
A: 1.68

Q: And the median fold over isotype (fold over isotype) [4]?
A: 2.68

B6: antibody 362 (antibody, V domains shown)
VH: QVQLVESGGGVVQPGRSLRLSCAASGFNLSNYAMHWVRQASGKGLEWVSLISYDGSVKYYTDSVKGRFTVSGDNSKNTLFLQMNSLRPDDSALYYCVRGGVSGPNSFDMWGQGTTVTVSS
VL: DVVMTQSPLSLPVTLGQPATISCRSSQSLVYSDGNTYVNWFQQRPGQSPRRLIYQVSIRASGVPDRFSGSGSGTDFALKISRVEAEDVGVYYCMQGTHWPVTFGQGTKVEIK
Q: For B6, which median fluorescence intensity, fold over isotype control (fold over isotype) [3] is on record?
A: 10.3

B7: antibody 325 (antibody, V domains shown)
VH: QVQLQESGPGLVKPSQTLSLTCTVSGGSISGGGYYWSWIRQHPGKGLEWIGYIYYSGSTYYNPSLQSRVTISVDTSKNQFSLKLSSVTAADTAVYYCARVGTSSVWYFDYWGQGTLVTVSS
VL: QSALTQPRSVSGSPGQSVTISCTGTSSDVGGYNYVSWYQQHPGKAPKLMIYDVTKRPSGVPDRFSGSKSGNTASLTISGLQAEDEADYYCSSYAGSWVFGGGTKLTVL
Q: B7 was tested. Which median fluorescence intensity, fold over isotype control (fold over isotype) [3] did it give?
A: 1.17

B8: antibody 499 (antibody, V domains shown)
VH: EVQLVESGGGLVKPGGSLRLSCAASGFTFSSYSMNWVRQAPGKGLEWVSSISSSSSYIYYADSVKGRFTISRDNAKNSLYLQMNSLRAEDTAVYYCARAPAGIVVGPDYWGQGTLVTVSS
VL: NFMLTQPHSVSESPGKTVTISCTGSSGSIASNYVQWYQQRPGSAPTTVIFEDNQRPSGVPDRFSGSIDSSSNSASLTISGLKTEDEADYYCQSYHSSNPHVVFGGGTKLTVL
Q: What does the source list for B8?
A: median fluorescence intensity, fold over isotype control (fold over isotype) [5]: 4.39 and 2.6; median fluorescence intensity, fold over isotype control (fold over isotype) [6]: 1.18; median fluorescence intensity, fold over isotype control (fold over isotype) [7]: 4.3

B9: antibody 495 (antibody, V domains shown)
VH: QITLKESGPTLVKPTQTLTLTCTFSGFSLSTSGVGVGWIRQPPGKALEWLALIYWDDDKRYSPSLKSRLTITKDTSKNQVVLIMTNMDPVDTATYYCAHRDSSSWFDLDAFDIWGQGTMVIVSS
VL: QSVLTQPPSVSEAPRQRVTISCSGSSSNIGNNAVNWYQQLPGKAPKLLIYYDDLLPSGVSDRFSGSKSGTSASLAISGLQSEDEADYYCAAWDDRLNGPVFGGGTKLTVL
Q: With B9 as the binder, how does the median fluorescence intensity, fold over isotype control (fold over isotype) [5] read?
A: 3.47 and 1.65

Q: And the median fluorescence intensity, fold over isotype control (fold over isotype) [6]?
A: 3.82

Q: What about the median fluorescence intensity, fold over isotype control (fold over isotype) [7] of the same binder?
A: 1.43
